Earlier results on 2 substances are cited in publication PMC3566329.

Data set [1] concerns the target Methylamine dehydrogenase (quinone) (Paracoccus denitrificans) (UniProt P22619). Kind of data set: single turnover kinetics.
Data set [2] concerns the target preMADH (Paracoccus denitrificans) (UniProt P22619).

In the case of MauG (di-ferrous) (from UniProt Q51658), in data set [1], the equilibrium dissociation constant (Kd) (in general, the constant that tells how readily two partners part at equilibrium) was 10.1 µM.
As for MauG (from UniProt Q51658), the Kd in data set [2] is < 1.5 µM.
